The results in this text go back to US20210363269A1 (ALX ONCOLOGY, published 2021).

B1: AB27c (antibody, mouse IgG2a, V domains shown)
VH: DVQLVESGGGVVRPGESLRLSCAVSGFRFSSYAMSWVRQAPGKGLEWVSGISSGGDTYYVDSVKGRFTISRDNSKNTLYLQVNSLTAEDTAIYYCARETWNHLFDYWGLGTLVTVSS
VL: ALTQPASVSADLGETVKITCSGGDSSSHYYGWYQQKSPGSAPVTVIYSDDERPSDIPSRFSGSASGSTATLTITGVRVEDEAIYYCGAYDGSTYANTFGAGTTLTVL
notes: Full-length mouse IgG2a
B2: AB25c (antibody, mouse IgG2a, V domains shown)
VH: DVQLVESGGGVVRPGESLRLSCEASGFTFSSNAMSWVRQAPGKGLEWVAGISSGSDTYYGDSVKGRLTISRDNSKNILYLQMNSLTAEDTAVYYCARETWNHLFDYWGLGTLVTVSS
VL: ALTQPASVSANPGETVEITCSGGSYSSYYYAWYQQKSPGSAPVTLIYSDDKRPSNIPSRFSGSASGSTATLTITGVRAEDEAVYFCGGYDQSSYTNPFGAGTTLTVL
notes: Full-length mouse IgG2a
B3: AB3c (antibody, mouse IgG2a, V domains shown)
VH: AVTLDESGGGLQTPGGALSLVCKASGFIFSDYGMNWVRQAPGKGLEFVAQITSGSRTYYGAAVKGRATISRDNRQSTVKLQLNNLRAEDTGIYFCARDFGSGVGSIDAWGNGTEVIVSS
VL: ALTQPASVSANLGGTVKITCSGSRGRYGWYQQRSPGSAPVTVIYRDNQRPSNIPSRFSSSTSGSTSTLTITGVQADDESVYFCGSYDGSIDIFGAGTTLTVL
notes: Full-length mouse IgG2a
B4: AB21c (antibody, mouse IgG2a, V domains shown)
VH: DVQLVESGGGVVRPGESLRLSCAASGFTFSSNAMSWVRQAPGKGLEWLAGISAGGSDTYYPASVKGRFTISRDNSKNTLYLQMNTLTAEDTAVYYCARETWNHLFDYWGLGTLVTVSS
VL: ALTQPASVSANPGETVKIACSGGDYYSYYYGWYQQKAPGSALVTVIYSDDKRPSDIPSRFSGSASGSTATLTITGVRAEDEAVYYCGGYDYSTYANAFGAGTTLTVL
notes: Full-length mouse IgG2a
B5: AB66c (antibody, mouse IgG2a, V domains shown)
VH: B4 VH with N32Y, P61I, A62D, S75P, T78S, N84S, T85S
VL: ALTQPASVSANPGETVKITCSGGDYYSTYYAWYQQKSPGSAPVTVIHSDDKRPSDIPSRFSGSASGSAATLIITGVRVEDEAVYYCGGYDGRTYINTFGAGTTLTVL
notes: Full-length mouse IgG2a
B6: antibody 132 (antibody, V domains shown)
VH: DVQLVESGGGVVRPGESLRLSCAASGFSFRSYAMNWVRQAPGEGLEWVSRINSGGGGTDYADSVKGRFTISRDNSKNTLYLQMNSLRAEDTAVYYCAKQYDWNSFFDYWGLGALVTVSS
VL: ETVLTQSPATLSVSPGERATLSCRASQTVGSKLAWHQQKPGQAPRLLIYDASNRATGIPDRFSGSGSGTDFTLTISSPQTEDSAVYYCQQYYYWPPYRFGGGTKVEIK
notes: also called AB132; S132
B7: antibody 121 (antibody, V domains shown)
VH: VQLVESGGGVVQPGGSLRLSCAASGFSFSNFAMTWVRQAPGEGLEWVSTIGSGDTYYADSVKGRFTISRDNSKNTLYLQMNSLRAEDTAVYYCAKDSTVSWSGDFFDYWGLGTLVTVSS
VL: EIVLTQSPATLSVSPGERATFSCRASQNVKNDLAWYQQRPGQAPRLLIYAARIRETGIPERFSGSGSGTEFTLTITSLQSEDFAVYYCQQYYDWPPFTFGGGTKVEIK
notes: also called S121
B8: antibody 120 (antibody, V domains shown)
VH: B7 VH with L114R
VL: B7 VL
notes: also called S120
B9: antibody 136 variant, light chain Mut / heavy chain wt (antibody, V domains shown)
VH: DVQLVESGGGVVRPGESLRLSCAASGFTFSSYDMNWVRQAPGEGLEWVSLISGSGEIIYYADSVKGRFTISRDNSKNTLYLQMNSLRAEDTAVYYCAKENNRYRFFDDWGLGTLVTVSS
VL: EIVLTQSPGTLSLSPGERATLSCRASQSVYTYLAWYQQKPGQAPRLLIYGASSRATGIPDRFSGSGSGTEFTLTISSLQSEDFAVYYCQQYYDRPPLTFGGGTKVEIK

Substitutions are numbered along the chain they refer to.

T6 sequence (P78324 31-149 limits assumed): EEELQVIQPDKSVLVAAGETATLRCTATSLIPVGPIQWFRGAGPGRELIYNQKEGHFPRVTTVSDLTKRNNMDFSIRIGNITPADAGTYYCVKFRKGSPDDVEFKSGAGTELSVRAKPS
T5 sequence (chain, as listed by the source limits assumed): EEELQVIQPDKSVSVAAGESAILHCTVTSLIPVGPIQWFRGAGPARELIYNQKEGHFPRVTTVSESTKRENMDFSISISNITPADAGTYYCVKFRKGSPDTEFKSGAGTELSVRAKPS

In the first experiment the target is T1, BALB/c mouse SIRP-α D1 domain (mouse (BALB/c strain)).
T1 chain: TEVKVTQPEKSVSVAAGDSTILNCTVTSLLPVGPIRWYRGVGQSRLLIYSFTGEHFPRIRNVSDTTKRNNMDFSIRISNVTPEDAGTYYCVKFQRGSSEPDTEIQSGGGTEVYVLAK
In words: SPR, ProteOn, antibody on chip. The protocol: (§1) All experiments were performed at 25° C. using a SPR-based ProteOn XPR36 biosensor (BioRad, Inc, Hercules, Calif.) equipped with GLC or NLC sensor chips. […] Purification was carried out by standard Protein A affinity column chromatography and eluted antibodies were stored in PBS buffer.
(§2) The running buffer was PBS pH 7.4 with 0.01% Tween-20 (PBST+). All analytes were used at their nominal concentrations as determined by A280 Absorbance and using their molar calculated extinction coefficient.
(§3) For the method using GLC chip, the analytes were injected and flowed over anti-SIRPα antibodies immobilized (˜1000 RUs) on GLC chips using Proteon™ Amine Coupling Kit. For the immobilization step, GLC chip was activated with EDAC/Sulpho-NHS 1:1 (Biorad) diluted 1/100 for 300 s at 25 μL/min. Anti-SIRPα antibodies were diluted to 80 nM concentration in 10 mM sodium acetate buffer pH 4.5 and immobilized to the chip at 30 μL/min for 50 s. Chip was inactivated with ethanolamine for 300 s at 25 μL/min. The analytes (e.g., SIRP-α from different species, SIRP-β, SIRP-γ) were injected in a “one-shot” kinetic mode at nominal concentrations of 100, 33, 11, 3.7, 1.2 and 0 nM. Association times were monitored for 90 s at 100 μL/min, and dissociation times were monitored for 1200 s. The surfaces were regenerated with a 2:1 v/v blend of Pierce IgG elution buffer/4M NaCl.
For orientation: In SPR one partner is held on a chip, and binding of the other changes the refractive index at the surface.
As for B1, the affinity, expressed as Kd, was 15 nM; the off-rate (koff) (usually the rate constant with which the complex falls apart) stood at 0.00226 s⁻¹; the kon (as a rule, a measure of how fast the partners come together) was determined as 150000 M⁻¹ s⁻¹.

As to B2, the Kd (usually the equilibrium constant for the complex coming apart) is 9.64 nM, the koff was 0.00292 s⁻¹ and the on-rate (kon) amounted to 303000 M⁻¹ s⁻¹.

B3 showed a Kd of 5.31 nM, a koff of 0.00412 s⁻¹ and a kon of 776000 M⁻¹ s⁻¹.

B4 had a dissociation constant (Kd) of 1.34 nM, a koff of 0.000618 s⁻¹ and a kon of 462000 M⁻¹ s⁻¹.

Take B5: binding was put at a Kd of 3.41 nM, the off-rate constant (koff) worked out at 0.000762 s⁻¹ and the on-rate constant (kon) amounted to 224000 M⁻¹ s⁻¹.

In a further experiment the target is T2, C57BL/6 mouse SIRP-α D1 domain (mouse (C57BL/6 strain), UniProt P97797 32-148).
T2 sequence: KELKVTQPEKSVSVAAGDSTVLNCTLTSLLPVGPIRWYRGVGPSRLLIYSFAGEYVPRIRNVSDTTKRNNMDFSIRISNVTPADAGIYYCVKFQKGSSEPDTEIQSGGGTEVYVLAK
Description: SPR, ProteOn, antibody on chip. As for the experimental part:
as §1, §2, §3
In turn, B1 came in with a Kd of 9.49 nM, a koff of 0.0014 s⁻¹ and a kon of 147000 M⁻¹ s⁻¹.

For the molecule B2, binding was characterised by a dissociation constant (Kd) of 2.81 nM, the koff was 0.000399 s⁻¹ and the kon turned out to be 142000 M⁻¹ s⁻¹.

On to B3, for which the Kd is 15 nM, the off-rate (koff) turned out to be 0.00619 s⁻¹ and the kon came out at 412000 M⁻¹ s⁻¹.

Turning to B4, the Kd stood at 0.876 nM, the koff is 0.000241 s⁻¹ and the kon worked out at 276000 M⁻¹ s⁻¹.

Molecule B5 had a Kd of 5.8 nM, a koff of 0.000619 s⁻¹ and a kon of 107000 M⁻¹ s⁻¹.

The next experiment concerns the target T3, mouse 129 SIRP-α D1 domain (mouse (129 strain), UniProt P97797 32-150).
T3 construct: also called m129
T3 chain: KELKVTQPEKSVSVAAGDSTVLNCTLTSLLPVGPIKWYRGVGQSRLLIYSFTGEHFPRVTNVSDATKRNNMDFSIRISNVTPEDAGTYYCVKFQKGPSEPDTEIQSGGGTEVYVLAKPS
Description: SPR, ProteOn, antibody on chip. The protocol: as §1, §3
(§4) Next, the binding kinetics of various antibody clones to selected mouse SIRP-α proteins were determined as described above. Mouse proteins that were tested include BALBc (SEQ ID NO:10), BL6 (SEQ ID NO:9), NOD (SEQ ID NO:8), and m129 (SEQ ID NO:7) SIRP-α proteins. Antibody clones labeled as “c” were tested as full-length mouse IgG2a antibodies; antibody clones labeled as “a” were tested as full-length human IgG1 antibodies with L234A, L235A, G237A, and N297A mutations.
As to B1, the equilibrium dissociation constant (Kd) is 0.487 nM, the koff is 0.000101 s⁻¹ and the on-rate constant (kon) came to 207000 M⁻¹ s⁻¹.

Consider B2, for which binding was characterised by a dissociation constant (Kd) of 0.0587 nM, the koff stood at 2.07e-05 s⁻¹ and the kon came out at 352000 M⁻¹ s⁻¹.

For B3, the affinity, expressed as Kd, was 22 nM; the koff worked out at 0.0118 s⁻¹; the kon was found to be 534000 M⁻¹ s⁻¹.

B4: the Kd came out at 0.0588 nM, the koff is 3.31e-05 s⁻¹ and the kon was 563000 M⁻¹ s⁻¹.

Molecule B5 registered a Kd of 0.0955 nM, a koff of 1.98e-05 s⁻¹ and a kon of 207000 M⁻¹ s⁻¹.

The target of another experiment is T4, NOD mouse SIRP-α D1 domain (mouse (NOD strain)).
T4 chain: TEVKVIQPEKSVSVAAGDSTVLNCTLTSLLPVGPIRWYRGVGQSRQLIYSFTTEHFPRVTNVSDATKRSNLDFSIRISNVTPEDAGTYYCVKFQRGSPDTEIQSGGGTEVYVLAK
Description: SPR, ProteOn, antibody on chip. As for the experimental part: as §1, §3, §4
The molecule B1 returned a Kd of 3.42 nM, a koff of 0.00101 s⁻¹ and a kon of 296000 M⁻¹ s⁻¹.

Regarding B2, binding was put at a Kd of 3.9 nM, the koff is 0.00143 s⁻¹ and the kon was 366000 M⁻¹ s⁻¹.

For the molecule B3, the equilibrium dissociation constant (Kd) worked out at 1.43 nM, the koff was found to be 0.00143 s⁻¹ and the kon was 999000 M⁻¹ s⁻¹.

Consider B4, for which binding was characterised by a dissociation constant (Kd) of 0.64 nM, the koff was 0.000479 s⁻¹ and the kon was 749000 M⁻¹ s⁻¹.

On to B5, for which the Kd came out at 0.564 nM, the koff was determined as 0.000232 s⁻¹ and the on-rate (kon) is 412000 M⁻¹ s⁻¹.

A further experiment addresses T5, human SIRP-α v2 (human).
T5 construct: also called Human v2; Human V2
Description: SPR. Put shortly:
(§5)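 Runs took place at 25° C in PBS pH 7.4 containing 0.01% Tween-20 on a ProteOn XPR36 biosensor, with purified antibodies either amine-coupled to a GLC chip or captured through biotinylated Protein A on an NLC chip. SIRP analytes went in by one-shot kinetic injection at nominal concentrations based on A280 absorbance. Apparent rate constants came from a global simple Langmuir fit of double-referenced data, and KD was calculated as kd/ka.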
B6 returned a Kd of 1.86 nM.

Molecule B7 returned a Kd of 0.0501 nM.

The molecule B8 registered a Kd of 0.0856 nM.

A further experiment concerns the target T6, human SIRP-α v1 (human, UniProt P78324 31-149).
T6 construct: also called Human v1; Human V1
Description: SPR. Put shortly: as §5
B6 gave a Kd of 0.426 nM.

In turn, B7 yielded a Kd of 0.157 nM. Against the preceding molecule, the Kd is about 2.7-fold lower.

As to B8, the affinity, expressed as Kd, was 0.214 nM.

The next experiment concerns the target T5, human SIRP-α v2. In words: SPR, antibody on GLC chip. Put shortly:
(§6)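 On a ProteOn XPR36 biosensor, Protein A-purified antibodies were amine-coupled to a GLC chip at about ~1000 RU after dilution to 80 nM in 10 mM sodium acetate pH 4.5. SIRP analytes at 100, 33, 11, 3.7, 1.2 and 0 nM were then injected one-shot in PBS pH 7.4 containing 0.01% Tween-20 at 25° C, with 90 s of association at 100 μL/min and 1200 s of dissociation. The dissociation constant (KD) was calculated as kd/ka from a global Langmuir fit of double-referenced data.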
Turning to B9, the Kd stood at 17.4 nM.

A further experiment deals with T7, BL6 mouse SIRP-α (mouse (C57BL/6 strain), UniProt P97797 32-148).
T7 construct: also called C57BL/6
T7 sequence: T2 sequence
Description: SPR, antibody on GLC chip. Put shortly:
as §6
As for B9, the affinity, expressed as Kd, was 32.6 nM.

A further experiment addresses T8, BALBc mouse SIRP-α (mouse (BALB/c strain)).
T8 chain: T1 chain
Description: SPR, antibody on GLC chip. Put shortly:
as §6
The molecule B9 returned a Kd of 2.8 nM. In other words, the single-digit nanomolar range.

The target in another experiment is T9, human SIRPγ isoform 1 (human, UniProt Q9P1W8 29-147).
T9 construct: also called Gamma; Human SIRPg
T9 sequence (Q9P1W8 29-147 limits assumed): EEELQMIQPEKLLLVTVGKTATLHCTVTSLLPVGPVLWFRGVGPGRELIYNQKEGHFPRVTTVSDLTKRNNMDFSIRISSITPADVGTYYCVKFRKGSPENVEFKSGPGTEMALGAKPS
In words: SPR, antibody on GLC chip. Put shortly: as §6
As to B9, the Kd stood at 19.6 nM.

For the next experiment, the target named is T6, human SIRP-α v1. In words: SPR, antibody on GLC chip. In outline: as §6
Molecule B9 registered a Kd of 7.28 nM.

For the next experiment, the target named is T10, NOD mouse SIRP-α (mouse (NOD strain)).
T10 chain: T4 chain
In words: SPR, antibody on GLC chip. Put shortly:
as §6
For B9, the Kd was found to be 4.12 nM.

A further experiment addresses T11, mouse 129 SIRP-α (mouse (129 strain), UniProt P97797 32-150).
T11 construct: also called m129
T11 chain: T3 chain
Description: SPR Koff +/-. In outline: as §5
As to B6, the binding result was “no binding”.

In the case of B7, the binding result is “no binding”.

Regarding B8, the binding result is recorded as “no binding”.
